The values below come from publication PMC9452303.

Assay [1] deals with CsuA/B (wild type, co-expressed with the CsuC chaperone) (Acinetobacter baumannii). The assay is described as follows: pull-down.
The target in assay [2] is CsuA/B Arg104Cys (in Csu pili) (Acinetobacter baumannii). The assay is described as follows: optical tweezers force spectroscopy; single pili on E. coli cells mounted on a bead, polystyrene probe bead; extension at a constant speed of 50 nm/s; force of region II (clinch opening).
Assay [3] has as its target CsuA/B Val2Ala (in Csu pili) (Acinetobacter baumannii). The assay is described as above.
The target in assay [4] is CsuA/B, major subunit of the Csu pilus rod (wild type, in Csu pili) (Acinetobacter baumannii). Described as above.
The target in assay [5] is FimD (Escherichia coli) (UniProt P30130). As to conditions: cited from earlier work.
Assay [6] deals with FimD NTD (Escherichia coli) (UniProt P30130). The conditions noted are these: cited from earlier work.

The stoichiometry N is a count of units in the complex or per binding partner. In assay [1], “CsuA/B (wild type, co-expressed with the CsuC chaperone) (natural protein)” had a stoichiometry N of 1 to 8.

Substance “CsuA/B Arg104Cys (in Csu pili) (natural protein)” yielded a clinch opening force in assay [2] of 19.8 pN.

Turning to “CsuA/B Val2Ala (in Csu pili) (natural protein)”, the clinch opening force in assay [3] was found to be 15 pN.

Turning to “CsuA/B, major subunit of the Csu pilus rod (wild type, in Csu pili) (natural protein)”, the clinch opening force in assay [4] was 23 pN.

By Kd is commonly meant the equilibrium constant for the complex coming apart. Consider FimC-FimH complex (from UniProt P31697), for which the Kd in assay [5] was 12.5 nM; in assay [6] it was 960 nM.
